This is an account of results in the domain aggregation screens of Martell et al. (2025).

The series in a line: soluble fraction after stress (log2 fold change); higher = more stays soluble; pooled small domains, quantitative proteomics. Conditions: stress: pH 4. A digest of the protocol:
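Values are log2 fold changes, and higher ones mean more of the domain stayed soluble. Each fold change reflects the soluble amount of a domain after acid stress and is taken as a measure of aggregation propensity. The stress was pH 4, applied to pooled custom libraries of small protein domains analysed by high-throughput quantitative proteomics.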

With “HMGDTIGEQKAKEIALEHAGLKSSDVTFIRAVLEYDDRNWEYDVEFYDADTYTEYDYEIDAHTGKILSFDH”, the “soluble fraction (log2)” value is -0.171. For the sequence “HMGDTPVDFSEFIRWVDTGVVDRVELTGNEIVGTSSSGERFSTYAPPQYEGLGNKLIERDIVVVATAA”, the “soluble fraction (log2)” value was -1.21.

Consider “HMGDTVSGTMLNLKPGVRVVHQIFGPGRVEETTGASLAEFRVTVRFEQKGLKTLLLQYAALQVINSEN”, for which the “soluble fraction (log2)” value was -1.05. In the case of “HMGDVKLNAIYNFLKEFSALNGFPPSVREIGAKFGIKSTSTVHYYLEKLKQSGVIQQEENKKRAVVIN”, the “soluble fraction (log2)” value is -0.446. As to “HMGDWEDFWEKEARRRKLSLDYQVVRSLSRWSREYDWGEEDVEQFLSQFPEGETVKMEDVELYFE”, the “soluble fraction (log2)” value was -1.41. As for “HMGDYDHYVVKVEDTLLNWLVTNVTTMSRNKLKDILAGQGIKVNGKITTKYDYPLTPGMKIAISKTKR”, the “soluble fraction (log2)” value was -0.351. Under “HMGEAIPVPDIRHKSQADAERLLQDQGLAMMVTDTGYVKTLPANYILEQIPVAGEKVKSGHVVYVIINSG” stands 0.0317.

Regarding “HMGEGIRIDSTAVVQVGEKMYAYLGGDGFSKEFWTNLPASGELAVTLKFEPIPMDAESLDFYEMPA”, the “soluble fraction (log2)” value was determined as 0.154. For “HMGEILYSGVLKGGDGPEATKLALEKFLGEANTQVAGRIGVQPETQVIWLSREAVDSAASTLSQHKGNMYV”, the “soluble fraction (log2)” value is -0.0574. Regarding “HMGELDFYEEMRDDYLTGKIWNVGEIVEAKGMIGEIVRKGTNYISFVTDDNKVHKAWLHEIKL”, the “soluble fraction (log2)” value is -1.37. As for “HMGELRAPLPGVIVSIPVKEGDEVKAGQAILIIEAMKMESEISSPIDAKVAKIVVKERVLVQEGDILIILE”, the “soluble fraction (log2)” value was -0.876. The result for “HMGEMTDFETLRDMYLTGQIWNIDDLIEANGVEGRIVRRGTNYIAFNDRDGKVHKAWLHEVTINE” reads -1.39; that for “HMGENTIFSGVLGEGRLDSALAHALPQFSRARIQGLIAEDAVLIAGKATNDAASKKFAGQSFELSVPAPRP”, 0.0263. Under “HMGEPQAWNELIGNLLRQWEARQTGWTPARKREALDRVLGAADPAALYTRLQGLLKSWTQAMTDADA” stands -0.956; under “HMGEQETILKGDVNRDGVVDVNDVTHLQIHISNDDKNPLIDVTNKAWFDAADMYGDGKLDILDATALQIYI”, -0.145. Turning to “HMGERVDGVVKFFNGQKGFGFIQREDGGPDAFVHISAVERAGMAGLDEGQRVSFELELDRRGKQAAINLTP”, the “soluble fraction (log2)” value is -0.192. Take “HMGESYGPVRRGETLWSIAEKVKPAGVSTQKELAAIYAANPQAFIRGDINLLKAGAELRLPSPEAL”: the “soluble fraction (log2)” value was -0.0107.

Turning to “HMGESYQIKDGELLVDIAQRVKPAGMTLRQTINALVAANPRAFRNGNPDLMYRGATLTIPDGDTLRRLAH”, the “soluble fraction (log2)” value turned out to be 0.0238. As to “HMGEVQALIPGLVSKLFVVEGESVKIGQKLIILEAMKMENEIASPINGTIKKIYIKSGDKIDKGSIIMEIT”, the “soluble fraction (log2)” value is -0.0106. Regarding “HMGEVVSAPMPGTILSIKVSQGQTVKRGQVLLILEAMKMENEIVAPRDGVVVQISTTQGASVETGAPLVVL”, the “soluble fraction (log2)” value is -0.118. For the sequence “HMGEVYPSDIVEKMKQANLHILEGTLYPLLTRLKNAGLLNYRWVESVTGPPRKYFVMTEEGKAAF”, the “soluble fraction (log2)” value is 0.0276. The result for “HMGEWHQMLRSWGETELKNGRQNILDEAVPAFERAMIETALAHTSGRKKDAALLLGWGRNTLTRKLQEHSI” reads -0.349; that for “HMGEYGVLWYLLTKKEAVSAGELKEKLHVVPGRMTDILTALEKKGLIIRQKNKTDKRVVDVVLTKEGEKEA”, -0.511; that for “HMGFAEFWLAYPKKVGKGEAERKWKTLKPDAGAVLSAVKRQSASEQWRKDGGRYIPNPATWLHQRRWE”, 0.243. As to “HMGFALLIAIERTGNTTYFVKLTLIKKGSDSDVLKDSFSVSQGDLVGTATYDSVIANRIREKTAAMWQKAT”, the “soluble fraction (log2)” value was -0.73. Turning to “HMGFDTSMNKYTIDDLLKLLELGSNPSQAEIVNKITNFNTIFVDNSGVIQFLNNIQDKLLDNFK”, the “soluble fraction (log2)” value is -0.95. As for “HMGFDTVVEKVLGLITSRPMTSRDIQMTLGRSREHTSRLMNRLYKEGLVDRNTSSKPFSYIITEKGREKI”, the “soluble fraction (log2)” value was found to be 0.424.
